Test results reported in article PMC8041823, “Structural comparison of Acinetobacter baumannii β-ketoacyl-acyl carrier protein reductases in fatty acid and aryl polyene biosynthesis” (Scientific Reports, 2021).

Biological target: T1, Acinetobacter baumannii ApeQ (β-ketoacyl-ACP reductase of the aryl polyene biosynthesis gene cluster) (Acinetobacter baumannii (clinical CRAB …))
T1 construct: ApeQ of A. baumannii, amplified from genomic DNA of the clinical carbapenem-resistant strain C1 with primers designed on the A. baumannii ACICU genome; NCBI ACC55845.1; Cloned NdeI/XhoI into pET28a; His-tag removed with thrombin; Residues of the thrombin site may be left at the N-terminus; also called AbApeQ; source: E. coli BL21 (DE3), purified (Chelating Sepharose, thrombin, Q-Sepharose anion …)
Test: ITC; 2 mM holo ACP1 titrated into 0.1 mM reductase; 20 mM Tris pH 8, 100 mM NaCl, 2 mM NADPH; 25 °C; MicroCal 200
Details: both partners purified

B1: holo ACP1 (acyl carrier protein 1 of the A. baumannii aryl polyene biosynthesis gene cluster) (natural protein)
chain: MSNLADELKQMIIDVLALEDITIADIDTEAPLFGEGLGLDSIDALELGLALKKRYNIHLNAESDETKQHFKSIQSLVALVEAQQKS
modifications: holo form (phosphopantetheine arm; made by co-expression with holo-ACP synthase AbAcpS); residue not stated
- Kd: ~80 µM
- dH: 3.05 kcal/mol
- stoichiometry N: 1.11
